What all share (assay): flow cytometry, transfected HEK293-6e cells, antibody 20 nM
Test [1] addresses T1, Construct 1 (chimeric human NaPi2b, swap in NaPi2c in 239-259) (human).
T1 construct: also called CL_#29914

Test [2] addresses T2, Construct 5 (chimeric human NaPi2b, swap in NaPi2a in 304-348) (human).
T2 construct: also called CL_#13436

Test [3] deals with T3, Construct 6 (human NaPi2b del 317-333) (human, UniProt O95436 1-690).
T3 construct: also called CL_#29919
T3 sequence: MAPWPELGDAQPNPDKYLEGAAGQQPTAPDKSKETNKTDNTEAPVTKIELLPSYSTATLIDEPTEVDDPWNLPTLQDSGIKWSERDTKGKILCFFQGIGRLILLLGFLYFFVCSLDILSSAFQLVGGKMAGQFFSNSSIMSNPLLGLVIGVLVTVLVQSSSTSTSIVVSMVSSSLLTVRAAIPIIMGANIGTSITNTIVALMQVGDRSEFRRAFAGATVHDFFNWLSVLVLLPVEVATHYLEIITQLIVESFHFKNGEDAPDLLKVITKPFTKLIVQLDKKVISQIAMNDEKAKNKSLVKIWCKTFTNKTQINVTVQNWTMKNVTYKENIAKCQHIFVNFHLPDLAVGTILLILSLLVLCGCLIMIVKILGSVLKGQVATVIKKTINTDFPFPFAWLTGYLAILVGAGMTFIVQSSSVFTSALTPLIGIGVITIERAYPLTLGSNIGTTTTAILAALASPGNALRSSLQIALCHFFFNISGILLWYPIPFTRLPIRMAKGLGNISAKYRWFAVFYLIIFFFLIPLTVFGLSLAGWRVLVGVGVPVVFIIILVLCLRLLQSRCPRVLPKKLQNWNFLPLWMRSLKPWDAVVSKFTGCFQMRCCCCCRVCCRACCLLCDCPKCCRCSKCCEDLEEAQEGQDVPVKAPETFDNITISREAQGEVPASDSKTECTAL

Test [4] has as its target T4, Full length human NaPi2b (sodium-dependent phosphate transporter 2B, SLC34A2) (human, UniProt O95436 1-690).
T4 construct: also called huNaPi2b; CL_#13432
T4 sequence: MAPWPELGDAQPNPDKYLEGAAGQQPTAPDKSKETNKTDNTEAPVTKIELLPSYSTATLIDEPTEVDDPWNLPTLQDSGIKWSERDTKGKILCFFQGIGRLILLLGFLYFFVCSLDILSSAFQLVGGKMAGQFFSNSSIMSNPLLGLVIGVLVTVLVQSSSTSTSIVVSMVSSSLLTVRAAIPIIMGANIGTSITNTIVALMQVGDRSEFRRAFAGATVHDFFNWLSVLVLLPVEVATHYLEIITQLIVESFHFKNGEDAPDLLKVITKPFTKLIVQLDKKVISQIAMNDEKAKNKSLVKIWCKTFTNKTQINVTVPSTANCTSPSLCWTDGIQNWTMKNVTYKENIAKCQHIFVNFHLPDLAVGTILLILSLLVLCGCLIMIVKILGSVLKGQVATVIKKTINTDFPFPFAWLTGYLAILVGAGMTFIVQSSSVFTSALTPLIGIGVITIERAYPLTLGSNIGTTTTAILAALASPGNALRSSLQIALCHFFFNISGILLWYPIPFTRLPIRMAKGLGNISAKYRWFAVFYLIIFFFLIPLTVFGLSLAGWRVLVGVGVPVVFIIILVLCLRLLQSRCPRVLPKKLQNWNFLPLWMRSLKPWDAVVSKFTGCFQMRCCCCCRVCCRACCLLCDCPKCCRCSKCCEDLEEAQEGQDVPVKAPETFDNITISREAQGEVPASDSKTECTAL

B1: lifastuzumab (v18993), reference anti-NaPi2b antibody (antibody, human IgG1, kappa)
heavy 1: GEVQLVESGGGLVQPGGSLRLSCAASGFSFSDFAMSWVRQAPGKGLEWVATIGRVAFHTYYPDSMKGRFTISRDNSKNTLYLQMNSLRAEDTAVYYCARHRGFDVGHFDFWGQGTLVTVSSASTKGPSVFPLAPSSKSTSGGTAALGCLVKDYFPEPVTVSWNSGALTSGVHTFPAVLQSSGLYSLSSVVTVPSSSLGTQTYICNVNHKPSNTKVDKKVEPKSCDKTHTCPPCPAPELLGGPSVFLFPPKPKDTLMISRTPEVTCVVVDVSHEDPEVKFNWYVDGVEVHNAKTKPREEQYNSTYRVVSVLTVLHQDWLNGKEYKCKVSNKALPAPIEKTISKAKGQPREPQVYVYPPSRDELTKNQVSLTCLVKGFYPSDIAVEWESNGQPENNYKTTPPVLDSDGSFALVSKLTVDKSRWQQGNVFSCSVMHEALHNHYTQKSLSLSPG
heavy 2: not shown
light: GDIQMTQSPSSLSASVGDRVTITCRSSETLVHSSGNTYLEWYQQKPGKAPKLLIYRVSNRFSGVPSRFSGSGSGTDFTLTISSLQPEDFATYYCFQGSFNPLTFGQGTKVEIKRTVAAPSVFIFPPSDEQLKSGTASVVCLLNNFYPREAKVQWKVDNALQSGNSQESVTEQDSKDSTYSLSSTLTLSKADYEKHKVYACEVTHQGLSSPVTKSFNRGEC
Regarding B1, the “Background-Subtracted AF647 Mean Fluorescence Intensity” value is 1700 MFI in test [1], 52 MFI in test [2], -3 MFI in test [3] and 1370 MFI in test [4].

B2: palivizumab (v21995), anti-RSV antibody, negative control (antibody, human IgG1, kappa, V domains shown)
VH: QVTLRESGPALVKPTQTLTLTCTFSGFSLSTSGMSVGWIRQPPGKALEWLADIWWDDKKDYNPSLKSRLTISKDTSKNQVVLKVTNMDPADTATYYCARSMITNWYFDVWGAGTTVTVSS
VL: DIQMTQSPSTLSASVGDRVTITCKSQLSVGYMHWYQQKPGKAPKLLIYDTSKLASGVPSRFSGSGSGTEFTLTISSLQPDDFATYYCFQGSGYPFTFGGGTKLEIKR
Consider B2, for which the “Background-Subtracted AF647 Mean Fluorescence Intensity” value in test [1] was -27 MFI; in test [2] it was 123 MFI; in test [3], 1 MFI; in test [4], 13 MFI.

(Values after US20260232827A1 (Zymeworks, published 2026).)
